Experimental data from paper PMC8298264, “Function of cofactor Akirin2 in the regulation of gene expression in model human neutrophil-like HL60 cells” (Bioscience Reports, 2021).

Test system: human HL60 cells
Test: SWATH-MS proteomics, differential protein representation, akirin2 KO vs WT HL60 cells
Type: cell-based
Settings: SWATH-MS, akirin2 KO vs WT HL60 cells, under-represented in KO
Method in brief: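 Proteins from WT and akirin2 KO HL60 cells (n=3 biological replicates) were FASP trypsin-digested and analyzed by SWATH-MS DIA with variable windows against an IDA-derived spectral library. Identifications at 1% global FDR; quantities normalized to total area sums of all detected proteins.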

| Molecule | Fold Change | Log (Fold Change) |
| --- | --- | --- |
| sp¦P08240¦SRPRA_HUMAN (protein, UniProt P08240 1-638, looked up) Signal recognition particle …: MLDFFTIFSKGGLVLWCFQGVSDSCTGPVNALIRSVLLQERGGNNSFTHEALTLKYKLDNQFELVFVVGFQKILTLTYVDKLIDDVHRLFRDKYRTEIQQQSALSLLNGTFDFQNDFLRLLREAEESSKIRAPTTMKKFEDSEKAKKPVRSMIETRGEKPKEKAKNSKKKGAKKEGSDGPLATSKPVPAEKSGLPVGPENGVELSKEELIRRKREEFIQKHGRGMEKSNKSTKSDAPKEKGKKAPRVWELGGCANKEVLDYSTPTTNGTPEAALSEDINLIRGTGSGGQLQDLDCSSSDDEGAAQNSTKPSATKGTLGGMFGMLKGLVGSKSLSREDMESVLDKMRDHLIAKNVAADIAVQLCESVANKLEGKVMGTFSTVTSTVKQALQESLVQILQPQRRVDMLRDIMDAQRRQRPYVVTFCGVNGVGKSTNLAKISFWLLENGFSVLIAACDTFRAGAVEQLRTHTRRLSALHPPEKHGGRTMVQLFEKGYGKDAAGIAMEAIAFARNQGFDVVLVDTAGRMQDNAPLMTALAKLITVNTPDLVLFVGEALVGNEAVDQLVKFNRALADHSMAQTPRLIDGIVLTKFDTIDDKVGAAISMTYITSKPIVFVGTGQTYCDLRSLNAKAVVAALMKA | 0.7296 | -0.1369 |
| sp¦P05164¦PERM_HUMAN (protein, UniProt P05164 165-745, looked up) Myeloperoxidase: VTCPEQDKYRTITGMCNNRRSPTLGASNRAFVRWLPAEYEDGFSLPYGWTPGVKRNGFPVALARAVSNEIVRFPTDQLTPDQERSLMFMQWGQLLDHDLDFTPEPAARASFVTGVNCETSCVQQPPCFPLKIPPNDPRIKNQADCIPFFRSCPACPGSNITIRNQINALTSFVDASMVYGSEEPLARNLRNMSNQLGLLAVNQRFQDNGRALLPFDNLHDDPCLLTNRSARIPCFLAGDTRSSEMPELTSMHTLLLREHNRLATELKSLNPRWDGERLYQEARKIVGAMVQIITYRDYLPLVLGPTAMRKYLPTYRSYNDSVDPRIANVFTNAFRYGHTLIQPFMFRLDNRYQPMEPNPRVPLSRVFFASWRVVLEGGIDPILRGLMATPAKLNRQNQIAVDEIRERLFEQVMRIGLDLPALNMQRSRDHGLPGYNAWRRFCGLPQPETVGQLGTVLRNLKLARKLMEQYGTPNNIDIWMGGVSEPLKRKGRVGPLLACIIGTQFRKLRDGDRFWWENEGVFSMQQRQALAQISLPRIICDNTGITTVSKNNIFMSNSYPRDFVNCSTLPALNLASWREAS | 0.7315 | -0.1358 |
| sp¦Q9H3N1¦TMX1_HUMAN (protein, UniProt Q9H3N1 27-280, looked up) Thioredoxin-related …: RRSNVRVITDENWRELLEGDWMIEFYAPWCPACQNLQPEWESFAEWGEDLEVNIAKVDVTEQPGLSGRFIITALPTIYHCKDGEFRRYQGPRTKKDFINFISDKEWKSIEPVSSWFGPGSVLMSSMSALFQLSMWIRTCHNYFIEDLGLPVWGSYTVFALATLFSGLLLGLCMIFVADCLCPSKRRRPQPYPYPSKKLLSESAQPLKKVEEEQEADEEDVSEEEAESKEGTNKDFPQNAIRQRSLGPSLATDKS | 0.7331 | -0.1348 |
| sp¦P11177¦ODPB_HUMAN (protein, UniProt P11177 31-359, looked up) Pyruvate dehydrogenase E1 …: LQVTVRDAINQGMDEELERDEKVFLLGEEVAQYDGAYKVSRGLWKKYGDKRIIDTPISEMGFAGIAVGAAMAGLRPICEFMTFNFSMQAIDQVINSAAKTYYMSGGLQPVPIVFRGPNGASAGVAAQHSQCFAAWYGHCPGLKVVSPWNSEDAKGLIKSAIRDNNPVVVLENELMYGVPFEFPPEAQSKDFLIPIGKAKIERQGTHITVVSHSRPVGHCLEAAAVLSKEGVECEVINMRTIRPMDMETIEASVMKTNHLVTVEGGWPQFGVGAEICARIMEGPAFNFLDAPAVRVTGADVPMPYAKILEDNSIPQVKDIIFAIKKTLNI | 0.7344 | -0.1341 |
| sp¦Q9NVH1¦DJC11_HUMAN (protein, UniProt Q9NVH1 2-559, looked up) DnaJ homolog subfamily C …: ATALSEEELDNEDYYSLLNVRREASSEELKAAYRRLCMLYHPDKHRDPELKSQAERLFNLVHQAYEVLSDPQTRAIYDIYGKRGLEMEGWEVVERRRTPAEIREEFERLQREREERRLQQRTNPKGTISVGVDATDLFDRYDEEYEDVSGSSFPQIEINKMHISQSIEAPLTATDTAILSGSLSTQNGNGGGSINFALRRVTSAKGWGELEFGAGDLQGPLFGLKLFRNLTPRCFVTTNCALQFSSRGIRPGLTTVLARNLDKNTVGYLQWRWGIQSAMNTSIVRDTKTSHFTVALQLGIPHSFALISYQHKFQDDDQTRVKGSLKAGFFGTVVEYGAERKISRHSVLGAAVSVGVPQGVSLKVKLNRASQTYFFPIHLTDQLLPSAMFYATVGPLVVYFAMHRLIIKPYLRAQKEKELEKQRESAATDVLQKKQEAESAVRLMQESVRRIIEAEESRMGLIIVNAWYGKFVNDKSRKSEKVKVIDVTVPLQCLVKDSKLILTEASKAGLPGFYDPCVGEEKNLKVLYQFRGVLHQVMVLDSEALRIPKQSHRIDTDG | 0.7368 | -0.1326 |
| sp¦O15173¦PGRC2_HUMAN (protein, UniProt O15173 1-223, looked up) Membrane-associated …: MAAGDGDVKLGTLGSGSESSNDGGSESPGDAGAAAEGGGWAAAALALLTGGGEMLLNVALVALVLLGAYRLWVRWGRRGLGAGAGAGEESPATSLPRMKKRDFSLEQLRQYDGSRNPRILLAVNGKVFDVTKGSKFYGPAGPYGIFAGRDASRGLATFCLDKDALRDEYDDLSDLNAVQMESVREWEMQFKEKYDYVGRLLKPGEEPSEYTDEEDTKDHNKQD | 0.7369 | -0.1326 |
| sp¦O14776¦TCRG1_HUMAN (protein, UniProt O14776 1-1098, looked up) Transcription elongation …: MAERGGDGGESERFNPGELRMAQQQALRFRGPAPPPNAVMRGPPPLMRPPPPFGMMRGPPPPPRPPFGRPPFDPNMPPMPPPGGIPPPMGPPHLQRPPFMPPPMSSMPPPPGMMFPPGMPPVTAPGTPALPPTEEIWVENKTPDGKVYYYNARTRESAWTKPDGVKVIQQSELTPMLAAQAQVQAQAQAQAQAQAQAQAQAQAQAQAQAQAQAQAQAQAQAQAQAQAQAQAQAQAQAQAQAQVQAQVQAQVQAQAVGASTPTTSSPAPAVSTSTSSSTPSSTTSTTTTATSVAQTVSTPTTQDQTPSSAVSVATPTVSVSTPAPTATPVQTVPQPHPQTLPPAVPHSVPQPTTAIPAFPPVMVPPFRVPLPGMPIPLPGVAMMQIVSCPYVKTVATTKTGVLPGMAPPIVPMIHPQVAIAASPATLAGATAVSEWTEYKTADGKTYYYNNRTLESTWEKPQELKEKEKLEEKIKEPIKEPSEEPLPMETEEEDPKEEPIKEIKEEPKEEEMTEEEKAAQKAKPVATAPIPGTPWCVVWTGDERVFFYNPTTRLSMWDRPDDLIGRADVDKIIQEPPHKKGMEELKKLRHPTPTMLSIQKWQFSMSAIKEEQELMEEINEDEPVKAKKRKRDDNKDIDSEKEAAMEAEIKAARERAIVPLEARMKQFKDMLLERGVSAFSTWEKELHKIVFDPRYLLLNPKERKQVFDQYVKTRAEEERREKKNKIMQAKEDFKKMMEEAKFNPRATFSEFAAKHAKDSRFKAIEKMKDREALFNEFVAAARKKEKEDSKTRGEKIKSDFFELLSNHHLDSQSRWSKVKDKVESDPRYKAVDSSSMREDLFKQYIEKIAKNLDSEKEKELERQARIEASLREREREVQKARSEQTKEIDREREQHKREEAIQNFKALLSDMVRSSDVSWSDTRRTLRKDHRWESGSLLEREEKEKLFNEHIEALTKKKREHFRQLLDETSAITLTSTWKEVKKIIKEDPRCIKFSSSDRKKQREFEEYIRDKYITAKADFRTLLKETKFITYRSKKLIQESDQHLKDVEKILQNDKRYLVLDCVPEERRKLIVAYVDDLDRRGPPPPPTASEPTRRSTK | 0.7373 | -0.1323 |

Same assay, conditions: akirin2 KO vs WT HL60 cells; sheet "Under-represented in KO"

| Molecule | Fold Change | Log (Fold Change) |
| --- | --- | --- |
| sp¦O95466¦FMNL1_HUMAN (protein, UniProt O95466 2-1100, looked up) Formin-like protein 1: GNAAGSAEQPAGPAAPPPKQPAPPKQPMPAAGELEERFNRALNCMNLPPDKVQLLSQYDNEKKWELICDQERFQVKNPPAAYIQKLKSYVDTGGVSRKVAADWMSNLGFKRRVQESTQVLRELETSLRTNHIGWVQEFLNEENRGLDVLLEYLAFAQCSVTYDMESTDNGASNSEKNKPLEQSVEDLSKGPPSSVPKSRHLTIKLTPAHSRKALRNSRIVSQKDDVHVCIMCLRAIMNYQSGFSLVMNHPACVNEIALSLNNKNPRTKALVLELLAAVCLVRGGHDIILAAFDNFKEVCGEQHRFEKLMEYFRNEDSNIDFMVACMQFINIVVHSVENMNFRVFLQYEFTHLGLDLYLERLRLTESDKLQVQIQAYLDNIFDVGALLEDTETKNAVLEHMEELQEQVALLTERLRDAENESMAKIAELEKQLSQARKELETLRERFSESTAMGPSRRPPEPEKAPPAAPTRPSALELKVEELEEKGLIRILRGPGDAVSIEILPVAVATPSGGDAPTPGVPTGSPSPDLAPAAEPAPGAAPPPPPPLPGLPSPQEAPPSAPPQAPPLPGSPEPPPAPPLPGDLPPPPPPPPPPPGTDGPVPPPPPPPPPPPGGPPDALGRRDSELGPGVKAKKPIQTKFRMPLLNWVALKPSQITGTVFTELNDEKVLQELDMSDFEEQFKTKSQGPSLDLSALKSKAAQKAPSKATLIEANRAKNLAITLRKGNLGAERICQAIEAYDLQALGLDFLELLMRFLPTEYERSLITRFEREQRPMEELSEEDRFMLCFSRIPRLPERMTTLTFLGNFPDTAQLLMPQLNAIIAASMSIKSSDKLRQILEIVLAFGNYMNSSKRGAAYGFRLQSLDALLEMKSTDRKQTLLHYLVKVIAEKYPQLTGFHSDLHFLDKAGSVSLDSVLADVRSLQRGLELTQREFVRQDDCMVLKEFLRANSPTMDKLLADSKTAQEAFESVVEYFGENPKTTSPGLFFSLFSRFIKAYKKAEQEVEQWKKEAAAQEAGADTPGKGEPPAPKSPPKARRPQMDLISELKRRQQKEPLIYESDRDGAIEDIITVIKTVPFTARTGKRTSRLLCEASLGEEMPL | 0.3323 | -0.4785 |
| sp¦Q15758¦AAAT_HUMAN (protein, UniProt Q15758 1-541, looked up) Neutral amino acid …: MVADPPRDSKGLAAAEPTANGGLALASIEDQGAAAGGYCGSRDQVRRCLRANLLVLLTVVAVVAGVALGLGVSGAGGALALGPERLSAFVFPGELLLRLLRMIILPLVVCSLIGGAASLDPGALGRLGAWALLFFLVTTLLASALGVGLALALQPGAASAAINASVGAAGSAENAPSKEVLDSFLDLARNIFPSNLVSAAFRSYSTTYEERNITGTRVKVPVGQEVEGMNILGLVVFAIVFGVALRKLGPEGELLIRFFNSFNEATMVLVSWIMWYAPVGIMFLVAGKIVEMEDVGLLFARLGKYILCCLLGHAIHGLLVLPLIYFLFTRKNPYRFLWGIVTPLATAFGTSSSSATLPLMMKCVEENNGVAKHISRFILPIGATVNMDGAALFQCVAAVFIAQLSQQSLDFVKIITILVTATASSVGAAGIPAGGVLTLAIILEAVNLPVDHISLILAVDWLVDRSCTVLNVEGDALGAGLLQNYVDRTESRSTEPELIQVKSELPLDPLPVPTEEGNPLLKHYRGPAGDATVASEKESVM | 0.3333 | -0.4771 |
